{"source": "patent US8802630B2", "about": "“Method of treating brain injury” (Buddhist Tzu Chi General Hospital, priority 2011, dated 2014)", "conditions": "rat, in vivo", "note": "Where no end group is shown, it is not given here.", "data": [{"substance": "fluorescence-labeled UCN: UCN labeled with the Alexa Fluor 488 dye using Microscale Protein Labeling Kit (DNPSLSIDLTFHLLRTLLELARTQSQRERAEQNRIIFDSV; ends and bridges not checked; also: Alexa Fluor 488 label, site not given here; UniProt P55089 83-122, looked up)", "values": [{"measurement": "penetration from lateral ventricle into striatal parenchyma", "result": "co-localized in cell nuclei of the striatum on the ipsilateral"}]}]}
